Substrate: CC(=O)C(=O)O
Test: purified protein, by the assay type
Details: pH 7.0, 37° C., 0.1 mM TPP, ± standard deviation
Experimental: The wild type AlsS and AlsS variants were synthesized from a His-tag plasmid in E. coli strain BL21 Star™ (DE3) (Invitrogen (Carlsbad, Calif.)) followed by purification with Ni-nitrilotriacetic acid (NTA) spin columns (Qiagen (Valencia, Calif.)). Protein concentrations were determined by the Bradford assay (Bio-Rad (Hercules, Calif.)).
Als enzyme activity. An enzyme assay for Als activity of AlsS was carried out in 1 ml of morpholinepropanesulfonic acid (MOPS) buffer (pH 7.0) containing 80 nM AlsS, 100 mM MOPS (pH 7.0), 1 mM MgCl2, 0.1 mM TPP, 10 mM acetate, and various concentrations of pyruvate at 37° C. for 10 min. The reaction was terminated by acidification of the solution with 0.1 ml of 50% H2SO4. The mixture was incubated for an additional 25 min at 37° C. to allow for the acid hydrolysis of the acetolactate to acetoin. […] One unit of enzyme activity was defined as the amount of enzyme that converts 1 μmol of substrate into product in 1 minute under these conditions. The Km values for pyruvate and the Vmax were extrapolated after nonlinear regression of the experimental points with the Gauss-Newton method using Matlab.

B1: Bacillus subtilis acetolactate synthase AlsS, wild type (Q at residue 487), SEQ ID NO: 2 (Bacillus subtilis subsp. subtilis str. 168) (protein)
chain: VLTKATKEQKSLVKNRGAELVVDCLVEQGVTHVFGIPGAKIDAVFDALQDKGPEIIVARHEQNAAFMAQAVGRLTGKPGVVLVTSGPGASNLATGLLTANTEGDPVVALAGNVIRADRLKRTHQSLDNAALFQPITKYSVEVQDVKNIPEAVTNAFRIASAGQAGAAFVSFPQDVVNEVTNTKNVRAVAAPKLGPAADDAISAAIAKIQTAKLPVVLVGMKGGRPEAIKAVRKLLKKVQLPFVETYQAAGTLSRDLEDQYFGRIGLFRNQPGDLLLEQADVVLTIGYDPIEYDPKFWNINGDRTIIHLDEIIADIDHAYQPDLELIGDIPSTINHIEHDAVKVEFAEREQKILSDLKQYMHEGEQVPADWKSDRAHPLEIVKELRNAVDDHVTVTCDIGSHAIWMSRYFRSYEPLTLMISNGMQTLGVALPWAIGASLVKPGEKVVSVSGDGGFLFSAMELETAVRLKAPIVHIVWNDSTYDMVAFQQLKKYNRTSAVDFGNIDIVKYAESFGATGLRVESPDQLADVLRQGMNAEGPVIIDVPVDYSDNINLASDKLPKEFGELMKTKAL
- Km (other: wild type): 13.6 ± 0.8 mM
- kcat (other: wild type): 121 ± 13 s⁻¹

B2: Bacillus subtilis acetolactate synthase AlsS variant Q487A, SEQ ID NO: 10 (Bacillus subtilis subsp. subtilis str. 168; Q486A) (protein)
chain: VLTKATKEQKSLVKNRGAELVVDCLVEQGVTHVFGIPGAKIDAVFDALQDKGPEIIVARHEQNAAFMAQAVGRLTGKPGVVLVTSGPGASNLATGLLTANTEGDPVVALAGNVIRADRLKRTHQSLDNAALFQPITKYSVEVQDVKNIPEAVTNAFRIASAGQAGAAFVSFPQDVVNEVTNTKNVRAVAAPKLGPAADDAISAAIAKIQTAKLPVVLVGMKGGRPEAIKAVRKLLKKVQLPFVETYQAAGTLSRDLEDQYFGRIGLFRNQPGDLLLEQADVVLTIGYDPIEYDPKFWNINGDRTIIHLDEIIADIDHAYQPDLELIGDIPSTINHIEHDAVKVEFAEREQKILSDLKQYMHEGEQVPADWKSDRAHPLEIVKELRNAVDDHVTVTCDIGSHAIWMSRYFRSYEPLTLMISNGMQTLGVALPWAIGASLVKPGEKVVSVSGDGGFLFSAMELETAVRLKAPIVHIVWNDSTYDMVAFAQLKKYNRTSAVDFGNIDIVKYAESFGATGLRVESPDQLADVLRQGMNAEGPVIIDVPVDYSDNINLASDKLPKEFGELMKTKAL
- Km (other: Q487A): 8.7 ± 0.5 mM
- kcat (other: Q487A): 58 ± 8 s⁻¹

B3: Bacillus subtilis acetolactate synthase AlsS variant Q487G (Bacillus subtilis subsp. subtilis str. 168; Q486G) (protein)
chain: VLTKATKEQKSLVKNRGAELVVDCLVEQGVTHVFGIPGAKIDAVFDALQDKGPEIIVARHEQNAAFMAQAVGRLTGKPGVVLVTSGPGASNLATGLLTANTEGDPVVALAGNVIRADRLKRTHQSLDNAALFQPITKYSVEVQDVKNIPEAVTNAFRIASAGQAGAAFVSFPQDVVNEVTNTKNVRAVAAPKLGPAADDAISAAIAKIQTAKLPVVLVGMKGGRPEAIKAVRKLLKKVQLPFVETYQAAGTLSRDLEDQYFGRIGLFRNQPGDLLLEQADVVLTIGYDPIEYDPKFWNINGDRTIIHLDEIIADIDHAYQPDLELIGDIPSTINHIEHDAVKVEFAEREQKILSDLKQYMHEGEQVPADWKSDRAHPLEIVKELRNAVDDHVTVTCDIGSHAIWMSRYFRSYEPLTLMISNGMQTLGVALPWAIGASLVKPGEKVVSVSGDGGFLFSAMELETAVRLKAPIVHIVWNDSTYDMVAFGQLKKYNRTSAVDFGNIDIVKYAESFGATGLRVESPDQLADVLRQGMNAEGPVIIDVPVDYSDNINLASDKLPKEFGELMKTKAL
- Km (other: Q487G): 1.6 ± 0.4 mM
- kcat (other: Q487G): 11 ± 5 s⁻¹

B4: Bacillus subtilis acetolactate synthase AlsS variant Q487S (Bacillus subtilis subsp. subtilis str. 168; Q486S) (protein)
chain: VLTKATKEQKSLVKNRGAELVVDCLVEQGVTHVFGIPGAKIDAVFDALQDKGPEIIVARHEQNAAFMAQAVGRLTGKPGVVLVTSGPGASNLATGLLTANTEGDPVVALAGNVIRADRLKRTHQSLDNAALFQPITKYSVEVQDVKNIPEAVTNAFRIASAGQAGAAFVSFPQDVVNEVTNTKNVRAVAAPKLGPAADDAISAAIAKIQTAKLPVVLVGMKGGRPEAIKAVRKLLKKVQLPFVETYQAAGTLSRDLEDQYFGRIGLFRNQPGDLLLEQADVVLTIGYDPIEYDPKFWNINGDRTIIHLDEIIADIDHAYQPDLELIGDIPSTINHIEHDAVKVEFAEREQKILSDLKQYMHEGEQVPADWKSDRAHPLEIVKELRNAVDDHVTVTCDIGSHAIWMSRYFRSYEPLTLMISNGMQTLGVALPWAIGASLVKPGEKVVSVSGDGGFLFSAMELETAVRLKAPIVHIVWNDSTYDMVAFSQLKKYNRTSAVDFGNIDIVKYAESFGATGLRVESPDQLADVLRQGMNAEGPVIIDVPVDYSDNINLASDKLPKEFGELMKTKAL
- Km (other: Q487S): 1.1 ± 0.6 mM
- kcat (other: Q487S): 11 ± 6 s⁻¹

— patent US9193965B2, “Acetolactate synthase having 2-ketoisovalerate decarboxylase activity and uses thereof” (The Regents of the University of California, priority 2010, dated 2015)
